Here are results for five molecules from US20190359693A1.

Some results are limits rather than exact numbers.

Assay [1] concerns the target HA of H1N1 A/Brisbane/59/07 (influenza A virus). Description: cell-based or functional assay.
The target of assay [2] is HA of H1N1 A/New Caledonia/20/1999 (influenza A virus). Description: cell-based or functional assay.
Assay [3] concerns the target HA of H1N1 A/Puerto Rico/8/34-MA (influenza A virus). Description: cell-based or functional assay.
Assay [4] deals with HA of H3N2 A/Brisbane/10/2007 (influenza A virus). Description: cell-based or functional assay.
Assay [5] has as its target HA of H3N2 A/HK/1/68-MA (influenza A virus). Description: cell-based or functional assay.
In assay [6] the target is HA of H5N1 A/Vietnam/1194/04 (influenza A virus). Kind of assay: cell-based or functional assay.
The target in assay [7] is HA of H7N3 A/NIBRG/60 (A/mallard/NL/12/00) (influenza A virus). Kind of assay: cell-based or functional assay.
The target of assay [8] is HA of H3N2 A/Brisbane/10/2007 (influenza A virus). Kind of assay: BLI steady state.
Assay [9] has as its target HA of H7N3 A/NIBRG/60 (A/mallard/NL/12/00) (influenza A virus). Description: BLI steady state.
The target in assay [10] is HA of B/Brisbane/60/2008 (Victoria) (influenza B virus). Kind of assay: cell-based or functional assay.
For assay [11], the target named is HA of B/Florida/04/2006 (Yamagata) (influenza B virus). Description: cell-based or functional assay.
The target of assay [12] is hemagglutinin (HA) of influenza A/Brisbane/10/07 (H3N2) (influenza A virus A/Brisbane/10/07 (H3N2)). Kind of assay: cell-based or functional assay.
For assay [13], the target named is hemagglutinin (HA) of influenza A/New Caledonia/20/99 (H1N1) (influenza A virus A/New Caledonia/20/99 (H1N1)). Kind of assay: cell-based or functional assay.
Assay [14] addresses hemagglutinin (HA) of influenza A/Vietnam/1194/04 (H5N1) (influenza A virus A/Vietnam/1194/04 (H5N1)). Description: cell-based or functional assay.
Assay [15] concerns the target hemagglutinin (HA) of influenza B/Brisbane/60/08 (Victoria lineage) (influenza B virus B/Brisbane/60/08). Description: cell-based or functional assay.
Assay [16] concerns the target hemagglutinin (HA) of influenza B/Harbin/7/94 (Yamagata lineage) (influenza B virus B/Harbin/7/94). Description: cell-based or functional assay.
Assay [17] has as its target HA of B/Harbin/7/94 (Yamagata) (influenza B virus). Kind of assay: cell-based or functional assay.
In assay [18] the target is HA of B/Lee/40 (influenza B virus) (UniProt P03460). Description: cell-based or functional assay.
The target in assay [19] is HA of B/Malaysia/2506/04 (Victoria) (influenza B virus). Description: cell-based or functional assay.
Assay [20] deals with hemagglutinin (HA) of influenza virus B/Brisbane/60/08 (Victoria) (influenza B virus). Kind of assay: cell-based or functional assay.
For assay [21], the target named is hemagglutinin (HA) of influenza virus B/Florida/04/06 (Yamagata) (influenza B virus). Kind of assay: cell-based or functional assay.
Assay [22] has as its target hemagglutinin (HA) of influenza virus B/Harbin/7/94 (Yamagata) (influenza B virus). Kind of assay: cell-based or functional assay.
The target in assay [23] is hemagglutinin (HA) of influenza virus B/Lee/40 (Old) (influenza B virus) (UniProt P03460). Kind of assay: cell-based or functional assay.
In assay [24] the target is hemagglutinin (HA) of influenza virus B/Malaysia/2506/04 (Victoria) (influenza B virus). Kind of assay: cell-based or functional assay.
The target of assay [25] is hemagglutinin (HA) of influenza virus B/Massachusetts/02/12 (Yamagata) (influenza B virus). Description: cell-based or functional assay.
Assay [26] addresses hemagglutinin (HA) of influenza virus H10N7 A/Chick/Germany/N/49 (influenza A virus). Description: cell-based or functional assay.
Assay [27] has as its target hemagglutinin (HA) of influenza virus H11N9 A/Northern Pintail/MPC2085/07 (influenza A virus). Description: cell-based or functional assay.
The target in assay [28] is hemagglutinin (HA) of influenza virus H14N5 A/Mallard/Astrakhan/263/1982 (influenza A virus). Kind of assay: cell-based or functional assay.
Assay [29] deals with hemagglutinin (HA) of influenza virus H1N1 A/Brisbane/59/07 (influenza A virus). Description: cell-based or functional assay.
In assay [30] the target is hemagglutinin (HA) of influenza virus H1N1 A/California/07/09 (influenza A virus). Description: cell-based or functional assay.
The target of assay [31] is hemagglutinin (HA) of influenza virus H1N1 A/Christchurch/16/10 (influenza A virus). Kind of assay: cell-based or functional assay.
For assay [32], the target named is hemagglutinin (HA) of influenza virus H1N1 A/Mississippi/03/01 274H (influenza A virus). Kind of assay: cell-based or functional assay.
Assay [33] deals with hemagglutinin (HA) of influenza virus H1N1 A/New Caledonia/20/99 (influenza A virus). Kind of assay: cell-based or functional assay.
Assay [34] concerns the target hemagglutinin (HA) of influenza virus H1N1 A/Puerto Rico/8/34-MA (influenza A virus). Description: cell-based or functional assay.
Assay [35] deals with hemagglutinin (HA) of influenza virus H1N1 A/Solomon Islands/3/2006 (IVR 145) (influenza A virus). Description: cell-based or functional assay.
The target in assay [36] is hemagglutinin (HA) of influenza virus H1N1 A/WSN/33 (influenza A virus) (UniProt P03454). Description: cell-based or functional assay.
Assay [37] addresses hemagglutinin (HA) of influenza virus H2N2 A/Guiyang/1/57 (influenza A virus). Description: cell-based or functional assay.
Assay [38] deals with hemagglutinin (HA) of influenza virus H3N2 A/Aichi/2/68 (influenza A virus) (UniProt P03437). Kind of assay: cell-based or functional assay.
Assay [39] deals with hemagglutinin (HA) of influenza virus H3N2 A/Brisbane/10/07 (influenza A virus). Kind of assay: cell-based or functional assay.
Assay [40] deals with hemagglutinin (HA) of influenza virus H3N2 A/Fukui/45/04 (influenza A virus). Kind of assay: cell-based or functional assay.
In assay [41] the target is hemagglutinin (HA) of influenza virus H3N2 A/HK/1/68-MA (influenza A virus). Kind of assay: cell-based or functional assay.
In assay [42] the target is hemagglutinin (HA) of influenza virus H3N2 A/Hiroshima/52/05 (influenza A virus). Description: cell-based or functional assay.
The target of assay [43] is hemagglutinin (HA) of influenza virus H3N2 A/Johannesburg/33/94 (influenza A virus). Description: cell-based or functional assay.
For assay [44], the target named is hemagglutinin (HA) of influenza virus H3N2 A/Panama/2007/99 (influenza A virus). Description: cell-based or functional assay.
Assay [45] has as its target hemagglutinin (HA) of influenza virus H3N2 A/Perth/16/09 (influenza A virus). Description: cell-based or functional assay.
For assay [46], the target named is hemagglutinin (HA) of influenza virus H3N2 A/Victoria/210/09 (influenza A virus). Kind of assay: cell-based or functional assay.
The target in assay [47] is hemagglutinin (HA) of influenza virus H3N2 A/Wisconsin/67/05 (influenza A virus). Kind of assay: cell-based or functional assay.
The target in assay [48] is hemagglutinin (HA) of influenza virus H4 A/WF/HK/MPA892/06 (influenza A virus). Description: cell-based or functional assay.
Assay [49] concerns the target hemagglutinin (HA) of influenza virus H5N1 A/PR8 H5N1 HK97 (influenza A virus). Kind of assay: cell-based or functional assay.
Assay [50] has as its target hemagglutinin (HA) of influenza virus H5N1 A/Vietnam/1194/04 (influenza A virus). Description: cell-based or functional assay.
Assay [51] addresses hemagglutinin (HA) of influenza virus H6N1 A/Eurasian Wigeon/MPG1884/09 (influenza A virus). Kind of assay: cell-based or functional assay.
Assay [52] deals with hemagglutinin (HA) of influenza virus H7N3 A/NIBRG/60 (A/mallard/Netherlands/12/00) (influenza A virus). Description: cell-based or functional assay.
In assay [53] the target is hemagglutinin (HA) of influenza virus H7N7 A/PR8 H7N7-NY (influenza A virus). Description: cell-based or functional assay.
Assay [54] concerns the target hemagglutinin (HA) of influenza virus H7N9 A/Anhui/1/13 (influenza A virus). Description: cell-based or functional assay.
The target in assay [55] is hemagglutinin (HA) of influenza virus H7N9 A/Shanghai/2/13 (influenza A virus). Description: cell-based or functional assay.
The target of assay [56] is hemagglutinin (HA) of influenza virus H8N4 A/Eurasian Wigeon/MPH571/08 (influenza A virus). Kind of assay: cell-based or functional assay.
Assay [57] has as its target hemagglutinin (HA) of influenza virus H9N2 A/HK/466419/09 (influenza A virus). Description: cell-based or functional assay.

B1: SD1025 (VHH)
VHH: EVQLVESGGGLVQAGGSLRLSCAASGRTYAMAWFRQAPGKEREFVAHINALGTRTYYSDSVQGRFTISRDNAKNTEYLQMNSLKPEDTAVYYCAAGGQWRAAPVADAAQYDFWGQGTQVTVSS
Turning to B1, the VNA titer in [1], in assay [2], in assay [3], in assay [4], in [5] and in assay [6] was greater than 1000 nM throughout. This molecule displayed a VNA titer in assay [7] of 52 nM.

B2: SD1048 (VHH)
VHH: EVQLVESGGGVVQPGGSLRLSCVASGRTSSMYSIGWFRQAPGKEREFVAVIGWYSGRTFYTDSMKGRFTISRDNARNTVYLQMNSLKPEDTAVYYCAAANGPLRLSNQADYWGQGTQVTVSS
On to B2, for which the Kd in assay [8] and in assay [9] was 3 nM throughout. Also, the VNA titer in assay [10] was greater than 1000 nM; in assay [11], greater than 1000 nM; in assay [1], greater than 1000 nM; in assay [2] it was greater than 1000 nM; in assay [4] it was 19.5 nM; in assay [6], greater than 1000 nM. In addition, in assay [7], the VNA titer stood at 20.6 nM.

B3: FM1W3 (Fc fusion)
chain: TIFGIRVNTMG
In the case of B3, the Average neutralization titers in [12] came out at 16 nM; in [13] it was 6 nM; in assay [14], 10 nM; in assay [15], 16 nM; in [16], 8 nM.

B4: SD2086 (VHH)
VHH: EVQLVESGGGLVQAGGSLRLSCATSGQTFSSYAMGWFRQAPGKEREFVAAISWNGGSTYYADSVKGRFTISRESPENLVYLQMNSLKPEDTAVYYCAARGAYYTGSYYLGSTYDYWGQGTQVTVSS
As to B4, the VNA titer in assay [10] amounted to 934 nM; in assay [11], 815 nM; in assay [17], 964 nM; in assay [18], 273 nM; in assay [19], 546 nM.

B5: MD2501 (bispecific antibody)
chain: EVQLVESGGGLVQPGGSLRLSCAVSISIFDIYAMDWYRQAPGKQRDLVATSFRDGSTNYADSVKGRFTISRDNAKNTLYLQMNSLKPEDTAVYLCHVSLYRDPLGVAGGMGVYWGKGALVTVSSGGGGSGGGGSEVQLVESGGGLVQPGGSLRLSCAVSISIFDIYAMDWYRQAPGKQRDLVATSFRDGSTNYADSVKGRFTISRDNAKNTLYLQMNSLKPEDTAVYLCHVSLYRDPLGVAGGMGVYWGKGALVTVSSGGGGSGGGGSEVQLVESGGGLVQAGGSLKLSCAASGRTYAMGWFRQAPGKEREFVAHINALGTRTYYSDSVKGRFTISRDNAKNTEYLEMNNLKPEDTAVYYCTAQGQWRAAPVAVAAEYEFWGQGTQVTVSSGGGGSGGGGSEVQLVESGGGLVQPGGSLRLSCAATGFTLENKAIGWFRQTPGSEREGVLCISKSGSWTYYTDSMRGRFTISRDNAENTVYLQMDSLKPEDTAVYYCATTTAGGGLCWDGTTFSRLASSWGQGTQVTVSSGGGGSGGGGSEVQLVESGGGLVQPGGSLKLSCAASGFTFSTSWMYWLRQAPGKGLEWVSVINTDGGTYYADSVKDRFTISRDNAKDTLYLQMSSLKSEDTAVYYCAKDWGGPEPTRGQGTQVTVSS
Turning to B5, the average neutralization titer in assay [20] came to 5 nM; in assay [21] it was 8.3 nM; in [22] it was 4.3 nM; in [23], 14.6 nM; in assay [24], 8.8 nM; in [25], 4 nM. Further, the average neutralization titer stood at 14.9 nM in assay [26]; 16 nM in assay [27]; 15.6 nM in assay [28]; 3 nM in assay [29]; 3 nM in [30]; 1.3 nM in assay [31]. The average neutralization titer in assay [32] is 4.9 nM; in [33] it was 4.8 nM; in assay [34] it was 8.5 nM; in assay [35], 3.9 nM; in [36] it was 2.9 nM; in assay [37], 19.9 nM. In addition, the average neutralization titer in [38] came to 12.6 nM; in assay [39], 9.6 nM; in assay [40] it was 21.2 nM; in assay [41], 19 nM; in assay [42] it was 6.5 nM; in assay [43], 11.6 nM. In addition, the average neutralization titer in [44] was 18.1 nM; in assay [45], 5.7 nM; in assay [46], 5.8 nM; in assay [47], 14.1 nM; in assay [48], 3.9 nM; in assay [49], 4.9 nM. Also, the average neutralization titer in assay [50] was 6.5 nM; in assay [51], 16 nM; in assay [52], 13.8 nM; in [53], 14 nM; in assay [54] it was 73.8 nM; in [55], 36.5 nM. Moreover, the average neutralization titer in assay [56] and in assay [57] was 16 nM each time.
